Measurements published in patent publication US20030100069A1 (Human Genome Sciences, published 2003).

T1: endogenous TRAF2 (of HeLa and 293 cells) (human, UniProt Q12933 2-501)
T1 construct: 293 is called a human embryonic kidney cell line; HeLa is a human line; Detected by western blot with anti-TRAF2 polyclonal antibodies; also called TNF receptor-associated factor 2
T1 sequence (looked up): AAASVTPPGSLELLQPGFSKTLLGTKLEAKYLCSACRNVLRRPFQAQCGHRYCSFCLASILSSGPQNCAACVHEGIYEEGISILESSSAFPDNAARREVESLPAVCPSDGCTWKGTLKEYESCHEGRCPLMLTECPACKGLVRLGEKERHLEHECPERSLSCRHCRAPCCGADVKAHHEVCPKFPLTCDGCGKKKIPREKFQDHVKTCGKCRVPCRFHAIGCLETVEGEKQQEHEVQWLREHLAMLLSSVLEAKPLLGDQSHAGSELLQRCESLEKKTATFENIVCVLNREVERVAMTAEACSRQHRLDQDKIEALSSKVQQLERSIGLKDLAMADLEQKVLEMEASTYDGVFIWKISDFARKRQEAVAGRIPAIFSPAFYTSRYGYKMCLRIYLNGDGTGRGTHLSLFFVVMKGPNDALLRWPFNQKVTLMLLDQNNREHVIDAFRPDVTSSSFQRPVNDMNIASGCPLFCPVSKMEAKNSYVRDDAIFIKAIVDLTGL

T2: F-TR8-615 (FLAG epitope-tagged TR8, residues 33-615 of FIGS. 1A-C) (human) (UniProt Q9Y6Q6)
T2 sequence: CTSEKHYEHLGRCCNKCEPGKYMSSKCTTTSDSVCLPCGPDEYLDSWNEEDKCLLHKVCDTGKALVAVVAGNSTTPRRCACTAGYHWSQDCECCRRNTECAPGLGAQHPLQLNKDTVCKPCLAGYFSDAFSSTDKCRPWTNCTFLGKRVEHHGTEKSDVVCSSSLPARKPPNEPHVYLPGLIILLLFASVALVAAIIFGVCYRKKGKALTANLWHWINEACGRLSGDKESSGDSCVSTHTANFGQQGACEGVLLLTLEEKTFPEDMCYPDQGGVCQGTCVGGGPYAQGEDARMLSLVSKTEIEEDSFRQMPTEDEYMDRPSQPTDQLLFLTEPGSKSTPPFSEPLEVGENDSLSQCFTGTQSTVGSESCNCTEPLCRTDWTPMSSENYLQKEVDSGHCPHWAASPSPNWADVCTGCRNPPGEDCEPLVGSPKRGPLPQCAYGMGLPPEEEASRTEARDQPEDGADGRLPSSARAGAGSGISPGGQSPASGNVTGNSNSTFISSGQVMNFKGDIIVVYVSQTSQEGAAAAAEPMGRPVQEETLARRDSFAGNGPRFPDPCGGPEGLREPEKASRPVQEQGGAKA

B1: F-TR8-330 (FLAG-tagged TR8 C-terminal deletion lacking 285 amino acids) (receptor, not shown: small tags and cut ends)
chain: CTSEKHYEHLGRCCNKCEPGKYMSSKCTTTSDSVCLPCGPDEYLDSWNEEDKCLLHKVCDTGKALVAVVAGNSTTPRRCACTAGYHWSQDCECCRRNTECAPGLGAQHPLQLNKDTVCKPCLAGYFSDAFSSTDKCRPWTNCTFLGKRVEHHGTEKSDVVCSSSLPARKPPNEPHVYLPGLIILLLFASVALVAAIIFGVCYRKKGKALTANLWHWINEACGRLSGDKESSGDSCVSTHTANFGQQGACEGVLLLTLEEKTFPEDMCYPDQGGVCQGTCVGGGPYAQGEDARMLSLVS
notes: The C-terminal limit is inferred from the construct name and the stated deletion of 285 residues; also called F-TR8 deletion mutant
B2: F-TR8-530 (FLAG-tagged TR8 C-terminal deletion lacking 85 amino acids) (receptor, not shown: small tags and cut ends)
chain: CTSEKHYEHLGRCCNKCEPGKYMSSKCTTTSDSVCLPCGPDEYLDSWNEEDKCLLHKVCDTGKALVAVVAGNSTTPRRCACTAGYHWSQDCECCRRNTECAPGLGAQHPLQLNKDTVCKPCLAGYFSDAFSSTDKCRPWTNCTFLGKRVEHHGTEKSDVVCSSSLPARKPPNEPHVYLPGLIILLLFASVALVAAIIFGVCYRKKGKALTANLWHWINEACGRLSGDKESSGDSCVSTHTANFGQQGACEGVLLLTLEEKTFPEDMCYPDQGGVCQGTCVGGGPYAQGEDARMLSLVSKTEIEEDSFRQMPTEDEYMDRPSQPTDQLLFLTEPGSKSTPPFSEPLEVGENDSLSQCFTGTQSTVGSESCNCTEPLCRTDWTPMSSENYLQKEVDSGHCPHWAASPSPNWADVCTGCRNPPGEDCEPLVGSPKRGPLPQCAYGMGLPPEEEASRTEARDQPEDGADGRLPSSARAGAGSGISPGGQSPASGNVTGNSNS
notes: also called F-TR8 deletion mutant
B3: F-TR8-427 (FLAG-tagged TR8 C-terminal deletion lacking 188 amino acids) (receptor, not shown: small tags and cut ends)
chain: CTSEKHYEHLGRCCNKCEPGKYMSSKCTTTSDSVCLPCGPDEYLDSWNEEDKCLLHKVCDTGKALVAVVAGNSTTPRRCACTAGYHWSQDCECCRRNTECAPGLGAQHPLQLNKDTVCKPCLAGYFSDAFSSTDKCRPWTNCTFLGKRVEHHGTEKSDVVCSSSLPARKPPNEPHVYLPGLIILLLFASVALVAAIIFGVCYRKKGKALTANLWHWINEACGRLSGDKESSGDSCVSTHTANFGQQGACEGVLLLTLEEKTFPEDMCYPDQGGVCQGTCVGGGPYAQGEDARMLSLVSKTEIEEDSFRQMPTEDEYMDRPSQPTDQLLFLTEPGSKSTPPFSEPLEVGENDSLSQCFTGTQSTVGSESCNCTEPLCRTDWTPMSSENYLQKEVDS
notes: The C-terminal limit is inferred from the construct name and the stated deletion of 188 residues; also called F-TR8 deletion mutant
B4: in vitro translated 35S-labeled TRAF2 (protein, UniProt Q12933 2-501, looked up, species assumed)
TNF receptor-associated factor 2: T1 sequence (looked up)
modifications: 35S-labeled

Molecular target: T1, endogenous TRAF2 (of HeLa and 293 cells)
Assay: anti-FLAG co-immunoprecipitation from HeLa and 293 lysates, anti-TRAF2 western blot
Method: Immunoprecipitations and JNK Kinase Assays—From transient transfected cells, lysates were prepared and immunoprecipitated using anti-FLAG-conjugated agarose or anti-JNK1 and protein A/G sepharose for 1 hr. Where indicated, ³⁵S-labeled proteins were added to the lysate prior to immunoprecipitation. Beads were collected by centrifugation and washed four times in lysis buffer followed by two washes in kinase buffer (20 mM TRIS, pH 8, 50 mM NaCl, and 1 mM DTT). For coimmunoprecipation, proteins were eluted in SDS-sample buffer, boiled, and subjected to SDS-PAGE. Analysis of JNK activity was performed using exogenously added GST-Jun(1-79) as a substrate as previously described (Haridas et al., J. Immunol. 160:3152-3162 (1998)). Quantitation of JNK activity and ³⁵S-labeled TRAF binding was analyzed using a PhosphoImager and Imagequant Software (Molecular Dynamics, Sunnyvale, Calif.).
TRAF2, TRAF5, and TRAF6 Interact with the C-Terminus of TR8—Since most of the TNFR family members utilize TRAFs as signaling components and that TR8 contains putative TRAF binding domains, we examined the ability for TR8 to interact with various TRAFs. […] After 24-36 hr, cell lysates were prepared and epitope-tagged receptors were immunoprecipitated with anti-FLAG conjugated-agarose. Coprecipitation of endogenous TRAF2 was detected by western blotting with anti-TRAF2 polyclonal antibodies. […] Membranes were also probed with anti-FLAG to insure precipitation of epitope-tagged receptors (data not shown).

| Molecule | binding result |
| --- | --- |
| B1 | no binding |
| B2 | no binding |
| B3 | no binding |

Molecular target: T2, F-TR8-615 (FLAG epitope-tagged TR8, residues 33-615 of FIGS. 1A-C) (human)
Assay: anti-FLAG co-immunoprecipitation of 35S-labeled TRAF from 293 lysates, PhosphorImager quantitation

| Molecule | fold increase in binding relative to vector transfected cells [fold] |
| --- | --- |
| in vitro translated 35S-labeled TRAF6 | 5 |
| in vitro translated 35S-labeled TRAF5 | 11 |
| B4 | 145 |
